Data on 3 sequences can be found in patent publication US5840867.

Where two headings read alike, the source gives them in different places. Where only a bound is given, the exact number is not on record here.

Broadly, the Kd is the concentration at which binding is half-saturated.

In one series the target is thrombin (Homo sapiens?) (UniProt P00734+P00734). The series can be described thus: filter.
For series [1], the target named is bradykinin (peptide, thiopropyl-derivatised on Sepharose for selection) (UniProt P01042). Particulars: method not stated, cited from earlier work.
The next series has as its target T1, ovalbumin (UniProt P01012).
T1 sequence: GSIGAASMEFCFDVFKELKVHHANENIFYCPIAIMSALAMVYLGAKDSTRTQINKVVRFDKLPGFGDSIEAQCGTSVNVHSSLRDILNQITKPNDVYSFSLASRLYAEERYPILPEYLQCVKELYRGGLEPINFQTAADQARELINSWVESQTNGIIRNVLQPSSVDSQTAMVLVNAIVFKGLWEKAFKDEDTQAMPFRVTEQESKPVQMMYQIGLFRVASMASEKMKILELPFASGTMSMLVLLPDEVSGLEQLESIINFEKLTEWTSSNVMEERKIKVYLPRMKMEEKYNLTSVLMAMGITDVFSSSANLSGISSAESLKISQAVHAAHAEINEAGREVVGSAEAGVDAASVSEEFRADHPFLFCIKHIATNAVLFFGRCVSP
Description: filter. The following applies: 60 pmol ovalbumin; DNA alone 0.07%.

Sequence of bradykinin (peptide, thiopropyl-derivatised on Sepharose for selection) (P01042 whole entry, looked up, tested part not stated): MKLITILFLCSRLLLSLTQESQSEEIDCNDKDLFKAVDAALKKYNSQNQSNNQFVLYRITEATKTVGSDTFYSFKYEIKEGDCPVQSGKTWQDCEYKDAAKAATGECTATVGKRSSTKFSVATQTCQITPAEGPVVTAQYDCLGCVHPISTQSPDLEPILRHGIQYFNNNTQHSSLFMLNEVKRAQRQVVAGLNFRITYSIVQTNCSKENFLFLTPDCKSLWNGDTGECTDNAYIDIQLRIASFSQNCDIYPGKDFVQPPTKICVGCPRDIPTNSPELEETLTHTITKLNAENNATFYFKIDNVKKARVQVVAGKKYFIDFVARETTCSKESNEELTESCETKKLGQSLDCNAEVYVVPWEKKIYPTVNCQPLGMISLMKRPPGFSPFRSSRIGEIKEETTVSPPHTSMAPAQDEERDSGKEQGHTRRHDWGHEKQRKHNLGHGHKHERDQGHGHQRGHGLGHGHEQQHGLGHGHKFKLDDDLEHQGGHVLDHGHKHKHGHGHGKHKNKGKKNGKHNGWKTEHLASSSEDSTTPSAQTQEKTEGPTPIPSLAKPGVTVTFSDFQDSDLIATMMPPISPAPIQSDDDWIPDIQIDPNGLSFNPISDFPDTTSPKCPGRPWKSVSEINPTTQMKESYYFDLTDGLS

For the sequence “CGTACGGTCGACGCTAGCNNNNNNNNNNNNNNNNNNNNNNNNNNNNNNNNNNNNNNNNNNNNNNNNNNNNNNNNNNNNCACGTGGAGCTCGGATCC [unselected 96-mer pool]”, the binding signal with thrombin (unselected DNA, DNA alone 0.08%) was determined as 0.06 % DNA bound. Further, the Kd in series [1] (unselected DNA) was over 1000 µM.

Consider “CGTACGGTCGACGCTAGCNNNNNNNNNNNNNNNNNNNNNNNNNNNNNNNNNNNNNNNNNNNNNNNNNNNNNNNNNNNNCACGTGGAGCTCGGATCC [Round 5 bradykinin aptamer pool]”, for which the equilibrium dissociation constant (Kd) in series [1] (pool) is 50 µM.

Take “CGTACGGTCGACGCTAGCNNNNNNNNNNNNNNNNNNNNNNNNNNNNNNNNNNNNNNNNNNNNNNNNNNNNNNNNNNNNCACGTGGAGCTCGGATCC [Round 5 thrombin aptamer pool (96-mer)]”: the binding signal in the series with ovalbumin worked out at 0.05 % DNA bound; in the series with thrombin (60 pmol thrombin, 3.5 pmol DNA in 200 uL selection buffer, RT 1 h, DNA alone 0.07%) it was 20.4 % DNA bound.
